Substitutions are numbered along the chain they refer to.
B1: GTGCAC_negctrl_site587 (dsDNA)
DNA 1: AAAAAAATAAAATTATATAAAATAAATTTTTATAAT
DNA 2: ATTATAAAAATTTATTTTATATAATTTTATTTTTTT
B2: GTGCAC_negctrl_site247 (dsDNA)
DNA 1: TGTTTATAAATATAAAAAAATATATATATATATTAT
DNA 2: ATAATATATATATATATTTTTTTATATTTATAAACA
B3: GTGCAC_negctrl_site234 (dsDNA)
DNA 1: GACAAAAAATTAAAATAAAATAATAATATAATAAAA
DNA 2: TTTTATTATATTATTATTTTATTTTAATTTTTTGTC
B4: GTGCAC_negctrl_site494 (dsDNA)
DNA 1: AAGTTTAAGAAATAATTCATATTTACTTCCATCCTC
DNA 2: GAGGATGGAAGTAAATATGAATTATTTCTTAAACTT
B5: GTGCAC_negctrl_site345 (dsDNA)
DNA 1: TTTTTCTATATTTTCTTTTATAAAATATATAATTTT
DNA 2: AAAATTATATATTTTATAAAAGAAAATATAGAAAAA
B6: GTGCAC_negctrl_site469 (dsDNA)
DNA 1: AACAAAGGATTTATATATACATACATACATACATAA
DNA 2: TTATGTATGTATGTATGTATATATAAATCCTTTGTT
B7: GTGCAC_negctrl_site643 (dsDNA)
DNA 1: TGTAGTCATTAGTCAAATTAGAATTAAATATATATT
DNA 2: AATATATATTTAATTCTAATTTGACTAATGACTACA
B8: GTGCAC_negctrl_site611 (dsDNA)
DNA 1: ATCGAAATTTTAGAATATATATGATGTTACTTAAGT
DNA 2: ACTTAAGTAACATCATATATATTCTAAAATTTCGAT
B9: GTGCAC_negctrl_site589 (dsDNA)
DNA 1: TTCTTTAATAAAATAATCTCAAAGAAAATTTTTTCT
DNA 2: AGAAAAAATTTTCTTTGAGATTATTTTATTAAAGAA
B10: GTGCAC_negctrl_site193 (dsDNA)
DNA 1: GCATATATTATATATTTATTTATTTTTTTTTTTTAA
DNA 2: TTAAAAAAAAAAAATAAATAAATATATAATATATGC
B11: GTGCAC_negctrl_site286 (dsDNA)
DNA 1: TCCTATCATTTATATTTTACTACATAATATTGATAA
DNA 2: TTATCAATATTATGTAGTAAAATATAAATGATAGGA
B12: GTGCAC_negctrl_site307 (dsDNA)
DNA 1: AATAATAAACACAATCAAATAAAATATGAAATATAA
DNA 2: TTATATTTCATATTTTATTTGATTGTGTTTATTATT
B13: GTGCAC_negctrl_site256 (dsDNA)
DNA 1: AATGATTTTAAATGAACATAATTTATATTCATAACA
DNA 2: TGTTATGAATATAAATTATGTTCATTTAAAATCATT
B14: GTGCAC_negctrl_site370 (dsDNA)
DNA 1: AATATATGGTTTCATGATATTAAATTCAATTTAATG
DNA 2: CATTAAATTGAATTTAATATCATGAAACCATATATT
B15: GTGCAC_negctrl_site76 (dsDNA)
DNA 1: B14 DNA 1 with G9C, A14G, G16T
DNA 2: B14 DNA 2 with C21A, T23C, C28G
B16: GTGCAC_negctrl_site22 (dsDNA)
DNA 1: B14 DNA 1 with G8T, A14C
DNA 2: B14 DNA 2 with T23G, C29A
B17: GTGCAC_negctrl_site139 (dsDNA)
DNA 1: TGATGAAAATCTACATGAATGTTTTTATATCTATAT
DNA 2: ATATAGATATAAAAACATTCATGTAGATTTTCATCA
B18: GTGCAC_negctrl_site225 (dsDNA)
DNA 1: AAATGAATAAAATTTATTTATAAAAGAAAAATCACA
DNA 2: TGTGATTTTTCTTTTATAAATAAATTTTATTCATTT
B19: GTGCAC_negctrl_site664 (dsDNA)
DNA 1: AAAAAAAAAAAGATAAATACAAGTTACACAAAAAAA
DNA 2: TTTTTTTGTGTAACTTGTATTTATCTTTTTTTTTTT
B20: GTGCAC_negctrl_site473 (dsDNA)
DNA 1: GGGTCAAGTAAGCTGTTCCTCTTTTTCTTTCTCACT
DNA 2: AGTGAGAAAGAAAAAGAGGAACAGCTTACTTGACCC
B21: GTGCAC_negctrl_site156 (dsDNA)
DNA 1: TAACTTTTTTTTTTTTTTTTTTAACTTTTATGTAAT
DNA 2: ATTACATAAAAGTTAAAAAAAAAAAAAAAAAAGTTA
B22: GTGCAC_negctrl_site125 (dsDNA)
DNA 1: AAAAATTATAAAAAACAAATATTAAATAATTATTAA
DNA 2: TTAATAATTATTTAATATTTGTTTTTTATAATTTTT
B23: GTGCAC_negctrl_site203 (dsDNA)
DNA 1: TTGATGTATACAATGTAGATTATTTAATATTTCAAT
DNA 2: ATTGAAATATTAAATAATCTACATTGTATACATCAA
B24: GTGCAC_negctrl_site68 (dsDNA)
DNA 1: GCAAAATAACAATGTTACACTTATAAAATTGAGGCA
DNA 2: TGCCTCAATTTTATAAGTGTAACATTGTTATTTTGC
B25: GTGCAC_negctrl_site30 (dsDNA)
DNA 1: TCTTAAAAGGGGAATGGAATGGAGAAAATGAAATAA
DNA 2: TTATTTCATTTTCTCCATTCCATTCCCCTTTTAAGA
B26: GTGCAC_negctrl_site161 (dsDNA)
DNA 1: AGAAAAAAAAAAAAAAATAAAAAAATAAATAAATAA
DNA 2: TTATTTATTTATTTTTTTATTTTTTTTTTTTTTTCT
B27: GTGCAC_negctrl_site616 (dsDNA)
DNA 1: TTATTTTTATTATAAATTATAAAATATAAATAAATA
DNA 2: TATTTATTTATATTTTATAATTTATAATAAAAATAA
B28: GTGCAC_negctrl_site409 (dsDNA)
DNA 1: ATTGAGGCTGGTTATATAATAATTTTATTATTTTAG
DNA 2: CTAAAATAATAAAATTATTATATAACCAGCCTCAAT
B29: GTGCAC_negctrl_site492 (dsDNA)
DNA 1: AAAACCTAAAAGTCTTAAATTTTAAATATACCTACA
DNA 2: TGTAGGTATATTTAAAATTTAAGACTTTTAGGTTTT
B30: GTGCAC_negctrl_site534 (dsDNA)
DNA 1: TTTTTTATCTAATATTTTATAATTTTCATAAATTTG
DNA 2: CAAATTTATGAAAATTATAAAATATTAGATAAAAAA
B31: GTGCAC_negctrl_site37 (dsDNA)
DNA 1: AATAAATAAATAAATTAATAAATTAATAAATTAATA
DNA 2: TATTAATTTATTAATTTATTAATTTATTTATTTATT
B32: GTGCAC_negctrl_site432 (dsDNA)
DNA 1: AAAAAAATAATATAAATAATGAAAAGATATAAATAA
DNA 2: TTATTTATATCTTTTCATTATTTATATTATTTTTTT
B33: GTGCAC_negctrl_site726 (dsDNA)
DNA 1: GAAAACATTAAAAGTTAGATCATAAGAAAAGAATAT
DNA 2: ATATTCTTTTCTTATGATCTAACTTTTAATGTTTTC
B34: GTGCAC_negctrl_site311 (dsDNA)
DNA 1: ATAAAATACCCTGATCTATTACATATTATATTCTGC
DNA 2: GCAGAATATAATATGTAATAGATCAGGGTATTTTAT
B35: GTGCAC_negctrl_site497 (dsDNA)
DNA 1: TATATAATATATATTTTATATTTGTAATAATTTTTT
DNA 2: AAAAAATTATTACAAATATAAAATATATATTATATA
B36: GTGCAC_negctrl_site394 (dsDNA)
DNA 1: AAAAAAAATTAAATAAATAAATATACACATATATAT
DNA 2: ATATATATGTGTATATTTATTTATTTAATTTTTTTT
B37: GTGCAC_negctrl_site172 (dsDNA)
DNA 1: TATTTTTTAAGTGAACATTTGTTATTATATTCTTAT
DNA 2: ATAAGAATATAATAACAAATGTTCACTTAAAAAATA
B38: GTGCAC_negctrl_site543 (dsDNA)
DNA 1: AAATGTGTAAATATAATTAGTTTCACAAAACAAATA
DNA 2: TATTTGTTTTGTGAAACTAATTATATTTACACATTT
B39: GTGCAC_negctrl_site442 (dsDNA)
DNA 1: ATAGTACAACAGGTTCTTGACAAACAATATGAATGT
DNA 2: ACATTCATATTGTTTGTCAAGAACCTGTTGTACTAT
B40: GTGCAC_negctrl_site80 (dsDNA)
DNA 1: TATTTTTTTTTCTTTTTATATATAATAATCTTCATT
DNA 2: AATGAAGATTATTATATATAAAAAGAAAAAAAAATA
B41: GTGCAC_negctrl_site372 (dsDNA)
DNA 1: AAAAAAATCACATAAAATACTTTATTTTATATTATA
DNA 2: TATAATATAAAATAAAGTATTTTATGTGATTTTTTT
B42: GTGCAC_negctrl_site271 (dsDNA)
DNA 1: TTGTTAATAAATAAATAAATAAATATATTTATATAT
DNA 2: ATATATAAATATATTTATTTATTTATTTATTAACAA
B43: GTGCAC_negctrl_site123 (dsDNA)
DNA 1: TCCTTAAAAATCTAAAAAGAAAAAAACATATATTTT
DNA 2: AAAATATATGTTTTTTTCTTTTTAGATTTTTAAGGA
B44: GTGCAC_negctrl_site418 (dsDNA)
DNA 1: TATTGACAAAAAAAAAAAAGGTAAAAAAGAAAGAAA
DNA 2: TTTCTTTCTTTTTTACCTTTTTTTTTTTTGTCAATA

target: AP2-I D3 (Plasmodium falciparum, UniProt Q8IJW6 910-1027); assay: gcPBM; about 25 ug protein; PBS, 1% milk, 0.2 mg/ml BSA, salmon testes DNA, 0.03% Triton X-100; settings: tags: N-terminal GST (pGEX-4T-1), kept; label: surface-attached array probe

Row | Binder | binding signal
1 | B1 | 6.82 ln median PBM intensity, better of two orientations
2 | B2 | 7.14 ln median PBM intensity, better of two orientations
3 | B3 | 6.9 ln median PBM intensity, better of two orientations
4 | B4 | 7.03 ln median PBM intensity, better of two orientations
5 | B5 | 6.92 ln median PBM intensity, better of two orientations
6 | B6 | 7.14 ln median PBM intensity, better of two orientations
7 | B7 | 6.93 ln median PBM intensity, better of two orientations
8 | B8 | 7.04 ln median PBM intensity, better of two orientations
9 | B9 | 7.02 ln median PBM intensity, better of two orientations
10 | B10 | 6.96 ln median PBM intensity, better of two orientations
11 | B11 | 6.95 ln median PBM intensity, better of two orientations
12 | B12 | 6.89 ln median PBM intensity, better of two orientations
13 | B13 | 6.86 ln median PBM intensity, better of two orientations
14 | B14 | 7.01 ln median PBM intensity, better of two orientations
15 | B15 | 7.14 ln median PBM intensity, better of two orientations
16 | B16 | 7.11 ln median PBM intensity, better of two orientations
17 | B17 | 6.88 ln median PBM intensity, better of two orientations
18 | B18 | 7.04 ln median PBM intensity, better of two orientations
19 | B19 | 6.94 ln median PBM intensity, better of two orientations
20 | B20 | 6.97 ln median PBM intensity, better of two orientations
21 | B21 | 6.93 ln median PBM intensity, better of two orientations
22 | B22 | 7.08 ln median PBM intensity, better of two orientations

Row | Binder | binding signal
23 | B23 | 7.03 ln median PBM intensity, better of two orientations
24 | B24 | 7.14 ln median PBM intensity, better of two orientations
25 | B25 | 7.11 ln median PBM intensity, better of two orientations
26 | B26 | 6.87 ln median PBM intensity, better of two orientations
27 | B27 | 7 ln median PBM intensity, better of two orientations
28 | B28 | 7.11 ln median PBM intensity, better of two orientations
29 | B29 | 7.08 ln median PBM intensity, better of two orientations
30 | B30 | 7.06 ln median PBM intensity, better of two orientations
31 | B31 | 6.84 ln median PBM intensity, better of two orientations
32 | B32 | 7.13 ln median PBM intensity, better of two orientations
33 | B33 | 7.04 ln median PBM intensity, better of two orientations
34 | B34 | 7.03 ln median PBM intensity, better of two orientations
35 | B35 | 7.15 ln median PBM intensity, better of two orientations
36 | B36 | 7.11 ln median PBM intensity, better of two orientations
37 | B37 | 7.06 ln median PBM intensity, better of two orientations
38 | B38 | 7.01 ln median PBM intensity, better of two orientations
39 | B39 | 7.13 ln median PBM intensity, better of two orientations
40 | B40 | 7 ln median PBM intensity, better of two orientations
41 | B41 | 7.11 ln median PBM intensity, better of two orientations
42 | B42 | 7.14 ln median PBM intensity, better of two orientations
43 | B43 | 6.9 ln median PBM intensity, better of two orientations
44 | B44 | 7.05 ln median PBM intensity, better of two orientations
